Numbering of substitutions follows the chain as printed.

The target in data set [1] is T1, Interleukin 10 receptor alpha chain, Fc fusion (human, UniProt Q13651 22-235).
T1 sequence: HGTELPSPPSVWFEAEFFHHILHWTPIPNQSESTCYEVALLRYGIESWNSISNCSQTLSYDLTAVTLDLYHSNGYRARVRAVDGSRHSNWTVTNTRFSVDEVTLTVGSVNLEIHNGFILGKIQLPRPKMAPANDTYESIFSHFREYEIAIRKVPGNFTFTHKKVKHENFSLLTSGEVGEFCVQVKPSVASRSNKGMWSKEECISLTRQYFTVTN
The experiment in a line: double filter binding; text: mutant with highest change in affinity; Fig 3D legend gives that to Mutant 2; Binding buffer (composition and pH not given), 37 C, 5' 32P RNA with a range of protein concentrations, nitrocellulose/nylon double filter; Kd = protein concent.

Data set [2] concerns the target T1, Interleukin 10 receptor alpha chain, Fc …. Nature of the data set: double filter binding; improved relative to cluster 1 seed; Binding buffer (composition and pH not given), 37 C, 5' 32P RNA with a range of protein concentrations, nitrocellulose/nylon double filter; Kd = protein concent.

B1: cluster 1 Mutant 1 (ssRNA)
RNA: GGGAGAGAGGAAGAGGGAUGGGUAACACUCGAUUCUCCUAGCCCUCUAGAAAUUCCCCUCCCCGACGACUCGCUGAGAUCGAGA
modifications: DuraScribe IVT transcript (2'-F pyrimidines implied by the kit, not stated)
Molecule B1 returned a Kd in data set [1] of 0.027 µM.

B2: cluster 1 Mutant 2 (ssRNA)
RNA: B1 RNA with G41U, U45G
modifications: DuraScribe IVT transcript (2'-F pyrimidines implied by the kit, not stated)
As to B2, the binding result in data set [2] is “binds”.

By Kd is commonly meant a measure of binding affinity in units of concentration.
